The record followed here is patent US20250101133A1 (published 2025).

By Kd is commonly meant the concentration at which binding is half-saturated.

Assay in all cases: SPR
In general terms: SPR reads the build-up and loss of mass on a sensor chip optically.

For experiment [1], the target named is Nb20.
Experiment [2] addresses Nb6.
Experiment [3] addresses Nb19.
Experiment [4] deals with Nb12.
Experiment [5] addresses T1, recombinant human NEDP1 protein (human, UniProt Q96LD8 1-212).
T1 chain: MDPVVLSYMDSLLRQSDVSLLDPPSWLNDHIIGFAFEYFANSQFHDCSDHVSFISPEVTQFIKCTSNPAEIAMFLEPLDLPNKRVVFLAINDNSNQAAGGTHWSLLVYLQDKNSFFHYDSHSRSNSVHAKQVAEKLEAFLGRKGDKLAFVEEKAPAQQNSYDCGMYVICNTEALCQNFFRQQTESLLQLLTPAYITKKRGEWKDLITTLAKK

B1: human NEDP1 (enzyme)
chain: T1 chain
For the molecule B1, the Kd in experiment [1] was 0.203 nM; in experiment [2], < 0.01 nM; in experiment [3], 0.196 nM; in experiment [4], 0.33 nM.

B2: AbR2DP47, purified His6-tagged nanobody (VHH)
VHH: QVQLQESGGGLVEPGGSLRLSCAASGSISSINVMAWYRQAPGKQRESVAAISSFGITTYSETVKGRFTASRDNAKNTMYLQMNNLKPEDTAVYYCKGPNTDWGQGTQVTVSS
In the case of B2, the Kd in experiment [5] was determined as 5.39 nM.

B3: AbR2DP12, purified His6-tagged nanobody (VHH)
VHH: QVQLQESGGGLVQAGGSLRLSCAASGSTSSFNVMAWYHQAPGKQRESVASITSGGITVYRDSVKGRFAISSDNAKNTVFLQMNSLKPEDTGVYYCGGVVDGRVYRGQGTQVTVSS
In the case of B3, the Kd in experiment [5] is < 0.01 nM.

B4: AbR2DP46, purified His6-tagged nanobody (VHH)
VHH: QVQLQESGGGLVQAGGSLRLSCAASGSPFSIGTMAWYRQAPGNQRASVAAITRGGATTYANSVKGRFTVSRDNAKNTVYLQMNSLKPEDTAAYYCSVWAGDRAYWGQGTQVTVSS
Regarding B4, the Kd in experiment [5] stood at 6.98 nM.

B5: AbR2DP35, purified His6-tagged nanobody (VHH)
VHH: QVQLQESGGGLVQPGGSLTLSCAASGVMFSTGVMGWYRQAPGKQREAVAAITSGGLTTYKDSVKGRFAISRDNTKSTGYLQMNRLRPEDTAVYYCNVRGYWGQGTQVTVSS
For B5, the Kd in experiment [5] was < 0.01 nM.
